Results reported in US20030194400.

Molecular target: Fn-TF:Factor VIIa complex (UniProt P08709)
Sequence (chain, as listed by the source, chain 1 of 2): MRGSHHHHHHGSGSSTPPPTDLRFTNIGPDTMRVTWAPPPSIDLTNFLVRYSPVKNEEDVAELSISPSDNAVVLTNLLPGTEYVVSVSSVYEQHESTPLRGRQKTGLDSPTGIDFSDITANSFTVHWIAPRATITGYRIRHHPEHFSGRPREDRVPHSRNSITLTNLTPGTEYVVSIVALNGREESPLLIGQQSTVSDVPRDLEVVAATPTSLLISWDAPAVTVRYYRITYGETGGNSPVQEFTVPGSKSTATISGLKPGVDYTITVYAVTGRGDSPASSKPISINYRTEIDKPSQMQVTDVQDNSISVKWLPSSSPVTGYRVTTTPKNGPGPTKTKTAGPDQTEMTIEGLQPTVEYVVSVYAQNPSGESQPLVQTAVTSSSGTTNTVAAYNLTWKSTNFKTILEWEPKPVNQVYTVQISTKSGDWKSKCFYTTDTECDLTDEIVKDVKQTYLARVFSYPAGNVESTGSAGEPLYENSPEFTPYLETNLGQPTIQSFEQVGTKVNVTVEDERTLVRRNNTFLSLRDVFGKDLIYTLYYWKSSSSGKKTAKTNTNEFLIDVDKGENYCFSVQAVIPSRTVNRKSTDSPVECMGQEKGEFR
Sequence (P08709 61-466, chain 2 of 2): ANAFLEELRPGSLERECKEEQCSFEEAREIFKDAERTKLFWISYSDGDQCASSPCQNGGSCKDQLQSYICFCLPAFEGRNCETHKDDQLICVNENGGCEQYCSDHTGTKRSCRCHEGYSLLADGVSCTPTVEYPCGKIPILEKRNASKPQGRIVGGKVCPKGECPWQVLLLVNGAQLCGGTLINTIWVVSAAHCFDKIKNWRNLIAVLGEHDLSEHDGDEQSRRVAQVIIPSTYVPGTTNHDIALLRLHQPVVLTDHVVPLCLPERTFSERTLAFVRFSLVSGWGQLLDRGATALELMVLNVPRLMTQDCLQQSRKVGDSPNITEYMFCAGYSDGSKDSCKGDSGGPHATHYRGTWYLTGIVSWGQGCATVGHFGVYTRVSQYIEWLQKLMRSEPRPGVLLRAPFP

Sequence of Factor X (chain): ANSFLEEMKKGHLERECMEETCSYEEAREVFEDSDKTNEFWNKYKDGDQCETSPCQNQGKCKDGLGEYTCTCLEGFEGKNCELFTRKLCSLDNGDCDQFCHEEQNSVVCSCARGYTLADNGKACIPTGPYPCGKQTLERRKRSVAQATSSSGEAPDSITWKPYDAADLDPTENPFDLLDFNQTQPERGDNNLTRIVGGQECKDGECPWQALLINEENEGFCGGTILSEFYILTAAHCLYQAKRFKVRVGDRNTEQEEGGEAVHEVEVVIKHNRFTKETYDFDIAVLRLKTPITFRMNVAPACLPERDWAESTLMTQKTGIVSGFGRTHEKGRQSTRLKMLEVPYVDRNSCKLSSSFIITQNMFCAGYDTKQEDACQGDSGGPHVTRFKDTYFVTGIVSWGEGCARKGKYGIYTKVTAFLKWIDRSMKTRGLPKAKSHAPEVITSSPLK

Factor X
proteolytic activity toward Factor X (Factor Xa generation, Spectrozyme FXa): The increasing concentration of Fn-TF led to increased proteolytic activity similar to the curve obtained with TF1-218
